Assay results from patent publication US20050074863A1, “T-cell epitodes in carboxypeptidase g2” (priority 2001, published 2005).

System: human T-cells
Test: Human PBMC in vitro proliferation assay with wild-type or modified CPG2 protein
Type: cell-based
Description: A modified protein was prepared according to the method of examples 3-5. The modified protein contained multiple substitutions from the wild-type sequence. Positive control protein was wild-type CPG2.
For T cell proliferation assays 4×10^6 PBMC (per well) from healthy donors were incubated with unmodified and modified […] in 2 ml bulk cultures (in 24 well plates). Each donor culture was treated with modified and unmodified CPG2 at 5 and 50 μg/ml. In addition an untreated control bulk culture was maintained enabling stimulation indexes to be determined. At days 5, 6, 7 and 8 cells for each bulk culture were gently agitated and 50 μl samples removed in triplicate for determination of the proliferation index. The 50 μl sample aliquots were each transferred to 3 wells of a U-bottom 96 well plate. Fresh AIM V media (130 μl) was added to each of the 96 wells. Cells were pulsed (for 18-21 hours) with 1 μCi [^3H]Thymidine per well diluted in a total volume of 20 ul AIM V media. The total volume for each culture was 200 μl. CPM values were collected using a beta-plate reader and the stimulation index for each time point determined as per Example 2.
The SI was plotted for each time point and treatment.

B1: carboxypeptidase G2 (protein, UniProt P06621 23-415, looked up)
Carboxypeptidase G2: ALAQKRDNVLFQAATDEQPAVIKTLEKLVNIETGTGDAEGIAAAGNFLEAELKNLGFTVTRSKSAGLVVGDNIVGKIKGRGGKNLLLMSHMDTVYLKGILAKAPFRVEGDKAYGPGIADDKGGNAVILHTLKLLKEYGVRDYGTITVLFNTDEEKGSFGSRDLIQEEAKLADYVLSFEPTSAGDEKLSLGTSGIAYVQVNITGKASHAGAAPELGVNALVEASDLVLRTMNIDDKAKNLRFNWTIAKAGNVSNIIPASATLNADVRYARNEDFDAAMKTLEERAQQKKLPEADVKVIVTRGRPAFNAGEGGKKLVDKAVAYYKEAGGTLGVEERTGGGTDAAYAALSGKPVIESLGLPGFGYHSDKAEYVDISAIPRRLYMAARLIMDLGAGK
modifications: 6xHis tag
notes: bacterial enzyme from Pseudomonas sp. strain RS-16, 390 residues, recombinant 6xHis tagged; positive control protein
proliferative response (stimulation index) to whole protein (responsive donors #1 and #16, 5 and 50 μg/ml, days 5-8, 3H-thymidine): significant proliferative response
time of peak proliferative response (responsive donors, 5 and 50 μg/ml): 7 days
